According to PMC6222646, “HIV-1 Integrase-Targeted Short Peptides Derived from a Viral Protein R Sequence”:

Legend:
[1] = target: HIV-1 integrase (IN) (HIV-1 (strain ), UniProt P12497 1148-1435); test: fluorescence anisotropy; IN-activity buffer: 50 mM MOPS pH 7.2, 7.5 mM MgCl2, 14 mM 2-mercaptoethanol; 10 nM DNA, +/- 400 nM IN; 5 min room temperature preincubation, anisotropy read every 30 s for 30 min; settings: protein: recombinant; tags: His6 or FLAG constructs described; chain copies: 4; label: AlexaFluor 488 at 5' end of 21T; blunt
[2] = target: Vpr-derived peptide 1a, Vpr(69-75) (HIV-1, UniProt Q73369); test: fluorescence anisotropy; 7.5 mM MgCl2; peptide up to 37 µM, no IN; IN-activity buffer: 50 mM MOPS pH 7.2, 7.5 mM MgCl2, 14 mM 2-mercaptoethanol; 10 nM DNA, +/- 400 nM IN; 5 min room temperature preincubation, anisotropy read every 30 s for 30 min; settings: label: AlexaFluor 488 at 5' end of 21T; blunt
Vpr-derived peptide 1a, Vpr(69-75), sequence (Q73369 whole entry, looked up): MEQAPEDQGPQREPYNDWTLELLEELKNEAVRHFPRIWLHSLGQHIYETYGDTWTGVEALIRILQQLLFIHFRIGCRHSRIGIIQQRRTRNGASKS

B1: 21T/21B duplex (HIV-1 viral DNA end substrate) (dsDNA)
DNA 1: GTGTGGAAAATCTCTAGCAGT
DNA 2: ACTGCTAGAGATTTTCCACAC
binding result [1]: binds | binding result [2]: no binding
